Assay [1] concerns the target N15 TCRαβ heterodimer, TCRα R251L (mouse).
The target of assay [2] is N15 TCRαβ heterodimer, WT TCRα (mouse) (UniProt P01849).
Sequence of UniProt P01849 (P01849 whole entry, looked up, one chain of several): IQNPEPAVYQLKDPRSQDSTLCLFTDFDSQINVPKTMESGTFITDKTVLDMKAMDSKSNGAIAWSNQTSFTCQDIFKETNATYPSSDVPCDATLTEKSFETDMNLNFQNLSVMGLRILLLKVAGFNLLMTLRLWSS

The substance “VSV8K^b (vesicular stomatitis virus nucleoprotein octapeptide VSV8 bound to [change]^b) (peptide-MHC)” yielded a catch bond force maximum in assay [1] of 10 pN. Further, in assay [2], the force maximum for catch-bond formation (CD3δ-SxxS cell line) is 15 pN and the maximal bond lifetime (catch bond; CD3δ-SxxS cell line) was found to be 8 s.

Values taken from publication PMC6249037.
